Assay results reported in patent publication US20160083476A1 (CENTRE NATIONAL DE LA RECHERCHE SCIENTIFIQUE CNRS, published 2016).

T1: extracellular region of the human recombinant carcinoembryonary antigen (CEA) (human, UniProt P06731 35-676, limits assumed)
T1 construct: extracellular domain; The Biacore paragraph says only 'CEA'; also called rhCEA
T1 sequence (looked up): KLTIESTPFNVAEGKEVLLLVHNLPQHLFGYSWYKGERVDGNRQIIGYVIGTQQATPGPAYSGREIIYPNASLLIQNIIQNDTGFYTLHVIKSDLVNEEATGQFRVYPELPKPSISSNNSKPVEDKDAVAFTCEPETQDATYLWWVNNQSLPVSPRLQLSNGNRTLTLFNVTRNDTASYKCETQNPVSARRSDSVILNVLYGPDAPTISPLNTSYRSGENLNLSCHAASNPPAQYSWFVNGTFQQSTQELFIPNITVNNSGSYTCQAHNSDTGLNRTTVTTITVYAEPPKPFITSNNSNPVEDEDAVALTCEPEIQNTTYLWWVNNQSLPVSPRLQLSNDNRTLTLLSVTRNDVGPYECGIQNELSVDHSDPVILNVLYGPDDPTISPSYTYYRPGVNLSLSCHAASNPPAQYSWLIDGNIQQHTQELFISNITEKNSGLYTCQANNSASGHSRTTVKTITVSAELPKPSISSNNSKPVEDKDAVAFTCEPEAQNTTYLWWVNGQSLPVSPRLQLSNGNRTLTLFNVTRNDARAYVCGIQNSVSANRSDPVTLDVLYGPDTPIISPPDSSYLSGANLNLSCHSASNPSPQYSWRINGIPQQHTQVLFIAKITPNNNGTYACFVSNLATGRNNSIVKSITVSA

T2: NCA expressed at the surface of MC38/NCA+ cells and granulocytes (UniProt P40199 35-320, limits assumed)
T2 construct: whole, on cells
T2 sequence (looked up): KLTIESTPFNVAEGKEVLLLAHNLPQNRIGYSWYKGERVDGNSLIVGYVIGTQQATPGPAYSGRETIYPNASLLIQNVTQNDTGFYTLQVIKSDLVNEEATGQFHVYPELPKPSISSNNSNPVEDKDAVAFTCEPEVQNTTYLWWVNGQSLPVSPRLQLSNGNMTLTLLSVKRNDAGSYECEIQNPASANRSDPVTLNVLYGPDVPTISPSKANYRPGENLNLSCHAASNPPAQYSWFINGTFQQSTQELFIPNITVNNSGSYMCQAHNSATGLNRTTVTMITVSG

B1: Anti-CEA 43 VHH (VHH)
VHH: EVQLVESGGGLVQAGGSLTLSCTSSTLTFTPYRMGWYRQTPGKQRDLVADISPGDGSTKNYAGFAQGRFTISRDNIKNTVYLQMNDLKPEDTAVYYCNTYVAFVGRARTWGQGTQVTVTS
notes: Purified from E. coli periplasm; c-myc tag recognised by mAb 9E10; also called anti-CEA VHH clone 43
B2: Anti-CEA 17 VHH (VHH)
VHH: EVQLVESGGGFVQAGESLTLSCTSSTLTFTPYRMAWYRQAPGKQRDLVADISSGDGRTTNYADFAKGRFTISRDNIKNTVFLRMTNLKPEDTAVYYCNTFVSFVGIARSWGQGTQVTVSS
notes: also called VHH CEA 17; anti-CEA VHH clone 17
B3: Anti-CD16 c72 VHH (VHH)
VHH: EVQLVESGGGLVQPGGSLTLSCVAAGSIFTFAMSWYRQAPRKERELVARIGTDDETMYKDSVKGRFTISRDNVKRTAGLQMNNLKPEDTAVYYCNARTDYRDWTVREYWGQGTQVTVSS
B4: Anti-CEA 3 VHH (VHH)
VHH: EVQLVESGGGLVQAGGSLRLSCTSSTVTFTPYQMGWYRQAPGKQRALVADISTGGSRTNYADFAKGRFTISRDDVKNTVYLQMNNLKPEDTAVYYCNTYYAMIGHARNWGQGTQVTVSS
notes: Purified from E. coli periplasm; c-myc tag recognised by mAb 9E10; also called anti-CEA VHH clone 3
B5: Anti-CD16 c13 VHH (VHH)
VHH: EVQLVESGGGLVQPGGSLRLSCSFPGSIFSLTMGWYRQAPGKERELVTSATPGGDTNYADFVKGRFTISRDNARSIIYLQMNSLKPEDTAVYYCYARTRNWGTVWGQGTQVTVSS
B6: Anti-CEA 25 VHH (VHH)
VHH: EVQLVESGGGLVQAGDSLTLTCTSPTLTFTPYRMGWYRQAPGKQRDLVADISGGDGRTTNYADFAKGRFTISRDNVKNAVYLQMNNLKPEDTAIYYCNTYVAIVGHARSWGQGTQVTVSS
notes: Purified from E. coli periplasm; c-myc tag recognised by mAb 9E10; also called anti-CEA VHH clone 25
B7: Anti-CD16 c21 VHH (VHH)
VHH: EVQLVESGGELVQAGGSLRLSCAASGLTFSSYNMGWFRRAPGKEREFVASITWSGRDTFYADSVKGRFTISRDNAKNTVYLQMSSLKPEDTAVYYCAANPWPVAAPRSGTYWGQGTQVTVSS

How the values were obtained:
[1] = target: T1, extracellular region of the human …; experiment: SPR, BIACORE 3000; VHH captured on immobilised anti-c-myc mAb 9E10, CEA injected
Protocol: The VHH (in buffer: 10 mM HEPES; 150 mM NaCl; 3 mM EDTA; 0.005% surfactant P20) is then injected and then a range of CEA or CD16 is injected on the VHH immobilised on the 9E10.

[2] = target: T2, NCA expressed at the surface of …; experiment: FACS on MC38/NCA+ cells and granulocytes
[3] = target: T2, NCA expressed at the surface of …; experiment: FACS on cells, detection by 9E10 anti-c-myc then anti-mouse IgG-FITC
Protocol: At each step, the samples are incubated for 45 min, 4° C., in the dark. Between each reaction, a washing is carried out with 2 ml of PBS/1% BSA. At the last step, the cells are taken up with 0.5 ml of PBS.

[4] = target: extracellular region of human recombinant (CD16B) receptor FcγRIIIB (human) (UniProt O75015); experiment: SPR, BIACORE 3000; VHH captured on immobilised anti-c-myc mAb 9E10, CD16 injected
Chain of extracellular region of human recombinant (CD16B) receptor FcγRIIIB (human) (O75015 17-200 limits assumed): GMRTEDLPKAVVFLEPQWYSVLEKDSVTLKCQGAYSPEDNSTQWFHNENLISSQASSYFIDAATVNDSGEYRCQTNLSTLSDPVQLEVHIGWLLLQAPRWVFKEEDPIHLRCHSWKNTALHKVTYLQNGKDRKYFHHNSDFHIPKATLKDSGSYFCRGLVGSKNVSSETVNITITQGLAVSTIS

Binder | Ka [1] | Kd [1] | koff [1] | kon [1] | binding result [2] | binding result [3] | Ka [4] | Kd [4] | koff [4] | kon [4]
B1 | 9.72e+07 M⁻¹ | 10.3 nM | 0.00183 s⁻¹ | 178000 M⁻¹ s⁻¹ | no binding (tested: 1 to 5 µg/ml) | – | – | – | – | –
B2 | – | – | – | – | – | no binding | – | – | – | –
B3 | – | – | – | – | – | – | 1.06e+07 M⁻¹ | 94.6 nM | 0.0037 s⁻¹ | 39000 M⁻¹ s⁻¹
B4 | 7.38e+07 M⁻¹ | 13.6 nM | 0.00168 s⁻¹ | 124000 M⁻¹ s⁻¹ | – | – | – | – | – | –
B5 | – | – | – | – | – | – | 9.4e+06 M⁻¹ | 101 nM | 0.00567 s⁻¹ | 53000 M⁻¹ s⁻¹
B6 | 3.15e+07 M⁻¹ | 31.7 nM | 0.0036 s⁻¹ | 113000 M⁻¹ s⁻¹ | no binding (tested: 1 to 5 µg/ml) | – | – | – | – | –
B7 | – | – | – | – | – | – | 1.03e+08 M⁻¹ | 9.7 nM | 0.00279 s⁻¹ | 286000 M⁻¹ s⁻¹
